For data set [1] the following is noted: cited from earlier work; for thermodynamic stability constant log K: Ga(III) complex.
On the set-up of data set [2]: species or system SCID mice. Particulars: mouse, in vivo.
Details of data set [3]: species or system SCID mice. Particulars: mouse, in vivo. This is another data set of the same source.
For data set [4], the system named is integrin αvβ3 positive PC-3 tumor xenografts. The arrangement: species or system SCID mice. As to conditions: mouse, in vivo.
Details of data set [5]: species or system SCID mice. Particulars: mouse, in vivo. This is another data set of the same source.
The subject of data set [6] is integrin αvβ3 positive PC-3 tumor xenografts. The arrangement: species or system SCID mice. Particulars: mouse, in vivo. The source holds these as a separate data set.
Details of data set [7]: species or system SCID mice. Particulars: mouse, in vivo, tumor uptake.
A further data set has as its target integrin αvβ3 (human (endogenous in U87MG), UniProt P06756 31-1048; P05106 27-788). As to the kind of experiment: radioligand binding.

The term half-life denotes the time needed for the level to fall by half in the phase considered. Higher therefore signals slow decline. Usually tissue uptake stands for the percentage of the injected dose found per gram of tissue. Lower therefore signals low uptake. The IC50 is the point on the concentration scale where inhibition reaches its midpoint.

Where two headings read alike, the source gives them in different places.

integrin αvβ3, sequence (P06756 31-1048, chain 1 of 2): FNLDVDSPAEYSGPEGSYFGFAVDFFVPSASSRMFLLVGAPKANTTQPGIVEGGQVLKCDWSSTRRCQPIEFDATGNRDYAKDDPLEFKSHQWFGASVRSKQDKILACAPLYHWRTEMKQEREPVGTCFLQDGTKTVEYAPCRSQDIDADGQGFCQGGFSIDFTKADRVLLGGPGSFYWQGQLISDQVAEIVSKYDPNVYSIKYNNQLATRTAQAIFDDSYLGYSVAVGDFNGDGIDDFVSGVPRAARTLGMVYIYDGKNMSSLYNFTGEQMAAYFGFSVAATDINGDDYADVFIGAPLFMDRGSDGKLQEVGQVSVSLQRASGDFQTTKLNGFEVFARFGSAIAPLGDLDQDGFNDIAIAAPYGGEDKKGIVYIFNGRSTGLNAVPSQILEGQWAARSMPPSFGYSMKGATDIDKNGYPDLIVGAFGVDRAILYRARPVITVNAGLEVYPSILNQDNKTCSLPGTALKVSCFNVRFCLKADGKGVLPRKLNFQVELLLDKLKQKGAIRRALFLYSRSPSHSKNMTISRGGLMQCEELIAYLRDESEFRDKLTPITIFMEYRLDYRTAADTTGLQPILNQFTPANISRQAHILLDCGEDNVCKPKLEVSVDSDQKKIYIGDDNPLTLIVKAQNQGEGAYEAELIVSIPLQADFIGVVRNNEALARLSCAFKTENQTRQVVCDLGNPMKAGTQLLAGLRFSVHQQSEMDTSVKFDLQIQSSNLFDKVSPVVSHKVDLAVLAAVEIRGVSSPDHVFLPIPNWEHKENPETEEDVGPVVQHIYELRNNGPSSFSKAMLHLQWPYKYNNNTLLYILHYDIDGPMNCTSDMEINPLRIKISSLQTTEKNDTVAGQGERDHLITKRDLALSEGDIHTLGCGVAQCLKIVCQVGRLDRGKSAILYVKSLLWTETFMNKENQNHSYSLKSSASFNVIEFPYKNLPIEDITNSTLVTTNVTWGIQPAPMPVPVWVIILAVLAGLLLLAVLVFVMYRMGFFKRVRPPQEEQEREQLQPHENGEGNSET
integrin αvβ3, sequence (P05106 27-788, chain 2 of 2): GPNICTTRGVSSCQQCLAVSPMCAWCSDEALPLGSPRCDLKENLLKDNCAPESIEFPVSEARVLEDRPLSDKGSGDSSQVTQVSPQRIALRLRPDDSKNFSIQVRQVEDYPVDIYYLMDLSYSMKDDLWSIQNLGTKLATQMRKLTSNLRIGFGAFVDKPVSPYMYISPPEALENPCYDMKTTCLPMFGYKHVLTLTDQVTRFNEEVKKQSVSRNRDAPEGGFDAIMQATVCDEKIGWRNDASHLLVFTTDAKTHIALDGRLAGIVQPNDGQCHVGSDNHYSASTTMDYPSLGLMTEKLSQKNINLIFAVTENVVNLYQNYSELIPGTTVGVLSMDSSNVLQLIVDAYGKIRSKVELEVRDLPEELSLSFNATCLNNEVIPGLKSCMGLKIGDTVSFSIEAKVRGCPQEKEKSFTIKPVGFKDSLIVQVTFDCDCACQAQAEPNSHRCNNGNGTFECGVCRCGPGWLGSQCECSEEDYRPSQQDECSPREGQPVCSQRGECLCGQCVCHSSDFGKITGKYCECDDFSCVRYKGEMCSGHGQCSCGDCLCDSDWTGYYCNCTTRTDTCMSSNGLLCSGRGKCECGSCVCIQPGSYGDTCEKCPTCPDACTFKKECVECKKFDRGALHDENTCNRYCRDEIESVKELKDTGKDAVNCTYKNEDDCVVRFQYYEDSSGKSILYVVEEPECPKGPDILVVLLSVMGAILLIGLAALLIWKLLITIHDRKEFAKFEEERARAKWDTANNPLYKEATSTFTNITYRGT

Turning to `O=C([O-])CN1CCN(CC(=O)[O-])CCN(CC(=O)O)CCN(CC(=O)[O-])CC1.[Ga+3]` [DOTA complex with Ga(III)], the “thermodynamic stability constant log K” value in data set [1] (ref 39) is recorded as 21.33.
For the molecule `O=C([O-])CN1CCN(CC(=O)[O-])CCN(CC(=O)[O-])CC1.[Ga+3]` [Ga(III)-NOTA complex], the acid-catalyzed dissociation entry in data set [1] (6N HNO3 for 6 days) is given as “stay inert against the acid-catalyzed dissociation”. Also, the “thermodynamic stability constant log K” value was 30.98 in data set [1] (ref 22, 24) and 30.98 in data set [1] (ref 24).
For `O=C([O-])CN1CCN(CC(=O)[O-])CCN(C(CC(=O)O)C(=O)[O-])CC1.[Ga+3]` (stereo not shown) [Ga-NODASA], in data set [1] (ref 24), the “thermodynamic stability constant log K” value is reported as 30.9.
As to `N=C(N)NCCC[C@@H]1NC(=O)[C@H](CCCCNC(=S)Nc2ccc(C[C@H]3CN(CC(=O)O)CCN(CC(=O)O)CCN3CC(=O)O)cc2)NC(=O)[C@@H](Cc2ccc(O)cc2)NC(=O)[C@H](CC(=O)O)NC(=O)CNC1=O` [^68Ga-1a, metal not drawn], the half-life in data set [2] (t1/2(α), distribution half-life) came out at 4 ± 1.1 min; in data set [2] (t1/2(β), terminal half-life), 29.8 ± 7.1 min. Besides, the “metabolites in urine by radio-HPLC” value in data set [3] was “no metabolites were detected”. The “kidney uptake retained at 2 h p.i.” value in data set [4] is reported as “less than 60%”. Moreover, the tissue uptake at 0.5 h in data set [5] (kidney uptake) worked out at 6.25 ± 0.61 %ID/g; in data set [5] (liver uptake), 1.98 ± 0.29 %ID/g. The tissue uptake at 2 h amounted to 2.95 ± 0.76 %ID/g in data set [5] (kidney uptake), 1.63 ± 0.19 %ID/g in data set [5] (tumor uptake) and 1.4 ± 0.36 %ID/g in data set [7]. Besides, the “tumor uptake retention at 2 h p.i.” value in data set [6] is given as 43%.
Molecule cyclo(RGDYK) (not fully specified (residue 4)) [c(RGDyK) peptide] showed an IC50 with integrin αvβ3 of 204 nM. That is a sub-micromolar value.

(Values after paper PMC3170926 (Bioconjugate chemistry, 2011).)
